This passage reports activity results from patent publication US20250283117, “RNA-GUIDED NUCLEASES AND ACTIVE FRAGMENTS AND VARIANTS THEREOF AND METHODS OF USE” (Life Edit Therapeutics, Inc., published 2025).

The subject of data set [1] is T1, APG05459.1 (Enterococcus sp.).
T1 sequence: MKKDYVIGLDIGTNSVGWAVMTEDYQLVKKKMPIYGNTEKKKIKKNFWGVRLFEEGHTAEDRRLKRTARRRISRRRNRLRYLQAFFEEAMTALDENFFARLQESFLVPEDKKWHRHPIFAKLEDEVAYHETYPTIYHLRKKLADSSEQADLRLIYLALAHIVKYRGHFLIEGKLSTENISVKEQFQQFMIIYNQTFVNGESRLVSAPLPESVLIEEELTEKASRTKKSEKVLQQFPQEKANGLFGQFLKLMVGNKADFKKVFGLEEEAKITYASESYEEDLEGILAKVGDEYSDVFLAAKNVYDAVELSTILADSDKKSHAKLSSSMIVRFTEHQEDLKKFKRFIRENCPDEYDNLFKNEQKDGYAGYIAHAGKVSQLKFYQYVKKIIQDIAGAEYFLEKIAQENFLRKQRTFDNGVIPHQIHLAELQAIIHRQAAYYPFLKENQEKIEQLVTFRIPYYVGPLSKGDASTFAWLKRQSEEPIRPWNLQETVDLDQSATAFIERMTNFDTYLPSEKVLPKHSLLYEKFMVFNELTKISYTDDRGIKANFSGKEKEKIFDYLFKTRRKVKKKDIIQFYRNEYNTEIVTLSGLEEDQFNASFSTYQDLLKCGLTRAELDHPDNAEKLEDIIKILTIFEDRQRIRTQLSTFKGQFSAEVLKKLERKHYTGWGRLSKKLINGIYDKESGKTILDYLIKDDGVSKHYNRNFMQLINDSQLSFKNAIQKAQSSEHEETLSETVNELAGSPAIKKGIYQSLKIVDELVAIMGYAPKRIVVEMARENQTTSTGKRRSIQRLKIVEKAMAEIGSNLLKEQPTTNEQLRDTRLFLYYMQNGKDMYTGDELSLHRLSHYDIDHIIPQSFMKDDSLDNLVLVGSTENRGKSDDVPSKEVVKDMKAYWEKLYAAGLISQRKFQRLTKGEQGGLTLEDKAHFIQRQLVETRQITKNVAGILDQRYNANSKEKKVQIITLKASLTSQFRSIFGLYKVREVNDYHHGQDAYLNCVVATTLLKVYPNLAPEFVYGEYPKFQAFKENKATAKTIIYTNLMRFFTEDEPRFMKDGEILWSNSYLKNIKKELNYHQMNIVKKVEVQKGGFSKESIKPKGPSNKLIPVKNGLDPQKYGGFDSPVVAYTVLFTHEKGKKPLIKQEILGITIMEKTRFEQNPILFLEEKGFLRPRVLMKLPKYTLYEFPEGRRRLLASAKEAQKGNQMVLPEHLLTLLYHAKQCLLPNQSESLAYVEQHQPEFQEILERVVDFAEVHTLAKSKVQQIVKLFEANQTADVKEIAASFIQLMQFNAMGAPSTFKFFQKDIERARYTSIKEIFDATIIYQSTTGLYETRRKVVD
Briefly: cleavage_in_vitro.

Data set [2] concerns the target T2, APG07513.1 (Bacillus sp.).
T2 chain: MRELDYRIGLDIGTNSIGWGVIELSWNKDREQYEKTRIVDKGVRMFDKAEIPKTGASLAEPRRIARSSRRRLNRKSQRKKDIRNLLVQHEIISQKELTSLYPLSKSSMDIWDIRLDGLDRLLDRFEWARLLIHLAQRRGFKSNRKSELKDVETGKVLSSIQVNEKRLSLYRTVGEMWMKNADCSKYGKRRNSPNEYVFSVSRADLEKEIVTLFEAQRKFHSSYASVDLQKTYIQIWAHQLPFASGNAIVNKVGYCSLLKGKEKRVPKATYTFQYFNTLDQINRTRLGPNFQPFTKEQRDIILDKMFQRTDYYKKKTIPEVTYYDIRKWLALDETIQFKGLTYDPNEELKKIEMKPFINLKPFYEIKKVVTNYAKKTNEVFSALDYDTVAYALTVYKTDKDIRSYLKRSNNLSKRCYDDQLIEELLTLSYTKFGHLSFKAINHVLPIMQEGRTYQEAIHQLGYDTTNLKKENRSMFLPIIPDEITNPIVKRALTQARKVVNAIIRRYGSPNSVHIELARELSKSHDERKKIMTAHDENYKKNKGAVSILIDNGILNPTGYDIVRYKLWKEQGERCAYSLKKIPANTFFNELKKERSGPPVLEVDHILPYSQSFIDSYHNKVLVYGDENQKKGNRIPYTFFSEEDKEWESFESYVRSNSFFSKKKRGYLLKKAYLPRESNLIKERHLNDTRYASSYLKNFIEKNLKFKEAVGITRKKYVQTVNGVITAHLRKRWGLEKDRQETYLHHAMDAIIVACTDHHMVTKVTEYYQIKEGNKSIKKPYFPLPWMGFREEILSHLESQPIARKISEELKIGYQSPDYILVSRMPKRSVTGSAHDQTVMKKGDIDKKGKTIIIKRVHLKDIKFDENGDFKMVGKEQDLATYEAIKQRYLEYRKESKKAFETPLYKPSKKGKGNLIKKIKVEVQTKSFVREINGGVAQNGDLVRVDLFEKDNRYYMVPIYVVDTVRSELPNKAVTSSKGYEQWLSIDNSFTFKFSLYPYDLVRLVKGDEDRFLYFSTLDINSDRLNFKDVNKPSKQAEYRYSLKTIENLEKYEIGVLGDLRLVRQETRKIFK
Briefly: cell_activity; HEK293T; PAM NNNNCC. The conditions noted are these: tags: E. coli pRSF-1b expression; human cells: N-term SV40 NLS and 3xFLAG, C-term nucleoplasmin NLS. The procedure: (§1) The constructs described above were introduced into mammalian cells. One day prior to transfection, 1×10⁵ HEK293T cells/well (Sigma) were plated in 24-well dishes in Dulbecco's modified Eagle medium (DMEM) plus 10% (vol/vol) fetal bovine serum (Gibco) and 1% Penicillin-Streptomycin (Gibco). The next day when the cells were at 50-60% confluency, 500 ng of a RGN expression plasmid plus 500 ng of a single gRNA expression plasmid were co-transfected using […] of Lipofectamine 3000 (Thermo Scientific) per well, following the manufacturer's instructions. After 48 hours of growth, total genomic DNA was harvested using a genomic DNA isolation kit (Machery-Nagel) according to the manufacturer's instructions.
(§2) Additionally, products from PCR #2 containing Illumina overhang sequences underwent library preparation following the Illumina 16S Metagenomic Sequencing Library protocol. Deep sequencing was performed on an Illumina Mi-Seq platform by a service provider (MOGene). Typically 200,000 of 250 bp paired-end reads (2×100,000 reads) are generated per amplicon. The reads were analyzed using CRISPResso (Pinello, et al. 2016 Nature Biotech, 34:695-697) to calculate the rates of editing. Output alignments were hand-curated to confirm insertion and deletion sites as well as identify microhomology sites at the recombination sites. All experiments were performed in human cells. The “target sequence” is the targeted sequence within the gene target. For each target sequence, the guide RNA comprised the complementary RNA target sequence and the appropriate sgRNA depending on the RGN used.

Data set [3] addresses T3, APG05083.1 (Bacillus sp.).
T3 chain: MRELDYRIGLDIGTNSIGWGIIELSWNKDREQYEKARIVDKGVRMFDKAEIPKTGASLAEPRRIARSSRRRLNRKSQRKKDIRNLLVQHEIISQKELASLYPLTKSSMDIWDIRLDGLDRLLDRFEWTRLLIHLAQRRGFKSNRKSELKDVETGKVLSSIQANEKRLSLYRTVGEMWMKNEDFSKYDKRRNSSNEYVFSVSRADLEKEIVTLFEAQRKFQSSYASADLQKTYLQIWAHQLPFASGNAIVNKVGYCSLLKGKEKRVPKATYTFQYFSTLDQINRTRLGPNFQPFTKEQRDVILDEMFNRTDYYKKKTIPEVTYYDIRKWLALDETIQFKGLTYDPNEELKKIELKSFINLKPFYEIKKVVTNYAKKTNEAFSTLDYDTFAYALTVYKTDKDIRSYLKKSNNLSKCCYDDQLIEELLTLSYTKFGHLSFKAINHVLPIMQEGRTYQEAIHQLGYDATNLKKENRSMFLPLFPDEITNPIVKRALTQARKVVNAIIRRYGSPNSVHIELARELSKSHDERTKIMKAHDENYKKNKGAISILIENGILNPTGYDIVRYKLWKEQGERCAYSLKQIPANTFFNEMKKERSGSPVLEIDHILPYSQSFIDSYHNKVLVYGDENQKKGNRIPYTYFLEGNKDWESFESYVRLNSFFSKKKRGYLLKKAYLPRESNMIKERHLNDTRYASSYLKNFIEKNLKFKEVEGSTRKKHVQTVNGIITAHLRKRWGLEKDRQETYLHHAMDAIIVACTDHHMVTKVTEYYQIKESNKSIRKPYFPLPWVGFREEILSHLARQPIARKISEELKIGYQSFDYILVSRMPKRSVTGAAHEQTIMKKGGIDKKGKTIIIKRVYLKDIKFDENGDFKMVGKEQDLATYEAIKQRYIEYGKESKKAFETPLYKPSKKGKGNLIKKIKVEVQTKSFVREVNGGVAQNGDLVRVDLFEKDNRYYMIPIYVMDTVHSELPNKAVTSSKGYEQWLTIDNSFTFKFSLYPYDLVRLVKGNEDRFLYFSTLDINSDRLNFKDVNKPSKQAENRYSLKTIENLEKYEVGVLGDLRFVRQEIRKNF
Briefly: cell_activity; HEK293T; PAM NNNNCC. The conditions noted are these: tags: E. coli pRSF-1b expression; human cells: N-term SV40 NLS and 3xFLAG, C-term nucleoplasmin NLS. The procedure:
as §1, §2

In the case of “GAGCGGACAGCAGCUUCCUAUAUCUCGUACNNNNNNNNNNNNNNNNNNNNNNNNNGUUUUAGAGUCAUGUUAAAGAACAUAGCAAGUUAAAAUAAGGUUUUAACCGUAAUCAACUGUAAAGUGGCGCUGUUUCGGCGCUUUUUUUGUUU / GAGCGGACAGCAGCTTCGTATATCTCGTAC / GTACGAGATATACGAAGCTGCTGTCCGCTC [Sequence 1 sgRNA for APG05459.1 ; target mismatch 13]”, the activity in data set [1] stood at 18 % cleaved.

In turn, “GAGCGGACAGCAGCUUCCUAUAUCUCGUACNNNNNNNNNNNNNNNNNNNNNNNNNGUUUUAGAGUCAUGUUAAAGAACAUAGCAAGUUAAAAUAAGGUUUUAACCGUAAUCAACUGUAAAGUGGCGCUGUUUCGGCGCUUUUUUUGUUU / GAGCGGACTGCAGCTTCCTATATCTCGTAC / GTACGAGATATAGGAAGCTGCAGTCCGCTC [Sequence 1 sgRNA for APG05459.1 ; target mismatch 22]” showed an activity in data set [1] of 48 % cleaved.

B1: Guide 136 ; AurkB target of guide 136 (ssRNA ; dsDNA)
RNA: GGGCCAUUAAAACCUCUCCAGUCAUAGUUCCAUUAAAGCCAUUGCUGAAAGACAGCAAUGGCUUUGAUGUUUCUAUGAUAAGGGCUUCGGCCCGUGGCGUUGGGGAUCGCCUGCCCAUUUUAAUGGGCUUCUCCCCAUCUAUUU
DNA 1: GGGCCATTAAAACCTCTCCA
DNA 2: TGGAGAGGTTTTAATGGCCC
For the molecule B1, the activity in data set [2] stood at 0.9 % editing.

B2: Guide 168 ; HPRT1 target of guide 168 (ssRNA ; dsDNA)
RNA: CACAUCUCGAGCAAGACGUUGUCAUAGUUCCAUUAUUGCAAAGGCUUUGAUGUUUCUAUGAUAAGGGCUUAGGCCCGUGGCGUUGGGGAUCGCCUGCCCAUUUUAAUGGGCUUCUCCCCAUCUAUUU
DNA 1: CACATCTCGAGCAAGACGTT
DNA 2: AACGTCTTGCTCGAGATGTG
In the case of B2, the activity in data set [3] was 11.3 % editing.

B3: Guide 185 ; RelA target of guide 185 (ssRNA ; dsDNA)
RNA: GGACAGUGCGCAUCUCCCUGGUCAUAGUUCCAUUAUUGCAAAGGCUUUGAUGUUUCUAUGAUAAGGGCUUAGGCCCGUGGCGUUGGGGAUCGCCUGCCCAUUUUAAUGGGCUUCUCCCCAUCUAUUU
DNA 1: GGACAGTGCGCATCTCCCTG
DNA 2: CAGGGAGATGCGCACTGTCC
In the case of B3, the activity in data set [3] was determined as 8.2 % editing.

B4: Guide 144 ; AurkB target of guide 144 (ssRNA ; dsDNA)
RNA: CAUGGCAGUACAUUAGAGCAGUCAUAGUUCCAUUAAAGCCAUUGCUGAAAGACAGCAAUGGCUUUGAUGUUUCUAUGAUAAGGGCUUCGGCCCGUGGCGUUGGGGAUCGCCUGCCCAUUUUAAUGGGCUUCUCCCCAUCUAUUU
DNA 1: CATGGCAGTACATTAGAGCA
DNA 2: TGCTCTAATGTACTGCCATG
As for B4, in data set [2], the activity was 2.4 % editing.
